The source of these data is article doi:10.1101/2024.09.23.614597.

The target in the test is PelC lipoprotein (P. aeruginosa). In words: cryo-EM structure.

PelC lipoprotein (natural protein) showed a stoichiometry N of 12 subunits.

What is called stoichiometry N is a count of units in the complex or per binding partner.
